Data as given in patent US6753317 (US Dept. of Health and Human Services, dated 2004).
Starred links: 1 amine or outer side, 2 acyl side, 3 side chain; linkers in the order of their positions; H or OH if unused. Non-standard residues stand in square brackets, D forms with d. *: point of attachment. des‑NH2‑α‑pyrrolidine‑1‑yl = Dmt (2',6'-dimethyl-L-tyrosine) with the α-amine replaced by pyrrolidine-1-yl, Cc1cc(O)cc(C)c1C[C@@H](C(=O)*)N1CCCC1; des‑NH2‑α‑piperidine‑1‑yl = Dmt (2',6'-dimethyl-L-tyrosine) with the α-amine replaced by piperidine-1-yl, Cc1cc(O)cc(C)c1C[C@@H](C(=O)*)N1CCCCC1; βTic = 1,2,3,4-tetrahydroisoquinoline-3-yl acetic acid, O=C(C[C@@H]1Cc2ccccc2CN1[*:1])[*:2]; des‑NH2‑α‑pyrrole‑1‑yl = replacement of the α-amino group by a pyrrol-1-yl group; NH(1-Adamantyl) = C1C2CC3CC1CC(N*)(C2)C3; Dmt = Cc1cc(O)cc(C)c1C[C@H](N)C(=O)O; NH‑tetrazole‑5‑yl = n1nc(N*)n[nH]1; Tic = O=C(O)[C@@H]1Cc2ccccc2CN1; dTic = O=C(O)[C@H]1Cc2ccccc2CN1; NHtBu = CC(C)(C)N*

How the values were obtained:
[1] = target: T1, µ-opioid receptor of the guinea pig ileum (GPI) (guinea pig); assay: cell-based or functional assay
[2] = target: T1, µ-opioid receptor of the guinea pig …; assay: cell-based or functional assay; remark: listed apart in the source

Binder	GPI ED50 [1]	also measured
{des‑NH2‑α‑pyrrolidine‑1‑yl}-[Dmt]-[Tic]-OH [[des-NH2-α-pyrrolidine-1-yl]-Dmt-Tic-OH]	> 10 µM	–
{N,N‑dimethyl}-[Dmt]-[dTic]-{NH(1-Adamantyl)} [N,N(Me)2-Dmt-D-Tic-NH-1-adamantane]	4.48 µM	–
{N,N‑dimethyl}-[Dmt]-[Tic]-NHtBu [N,N(Me)2-Dmt-Tic-NH-tBu]	> 10 µM	GPI Ke [1]: 0.3 µM
H-[Dmt]-[βTic]-OH [H-Dmt-βTic-OH]	> 10 µM	–
H-[Dmt]-[Tic]-OH (also: (R,S)-Dmt, racemic, mixture of diastereomers) [H-(R,S)Dmt-Tic-OH]	> 10 µM	–
{des‑NH2‑α‑piperidine‑1‑yl}-[Dmt]-[Tic]-OH [[des-NH2-α-piperidine-1-yl]-Dmt-Tic-OH]	> 10 µM	–
H-[Dmt]-[Tic]-{NH‑tetrazole‑5‑yl} [H-Dmt-Tic-NH-tetrazole-5-yl]	8.2 µM	–
H-[Dmt]-[dTic]-{NH(1-Adamantyl)} [H-Dmt-D-Tic-NH-1-adamantane]	1.68 µM	–
{N,N‑dimethyl}-[Dmt]-[Tic]-{NH(1-Adamantyl)} [N,N(Me)2-Dmt-Tic-NH-1-adamantane]	0.016 µM	–
H-[Dmt]-[Tic]-{NH(1-Adamantyl)} (SMILES Cc1cc(O)cc(C)c1C[C@H](N)C(=O)N1Cc2ccccc2C[C@H]1C(=O)NC12CC3CC(CC(C3)C1)C2) [H-Dmt-Tic-NH-1-adamantane]	0.036 µM	–
H-[Dmt]-[Tic]-Ala-NHtBu (SMILES Cc1cc(O)cc(C)c1C[C@H](N)C(=O)N1Cc2ccccc2C[C@H]1C(=O)N[C@@H](C)C(=O)NC(C)(C)C) [H-Dmt-Tic-Ala-NH-tBu]	> 10 µM	GPI Ke [1]: 0.17 µM; GPI pA2 [1]: 6.76
H-[Dmt]-[Tic]-Ala-NH2 [H-Dmt-Tic-Ala-NH2]	4.74 µM	–
{N,N‑dimethyl}-[Dmt]-[Tic]-NHMe [N,N(Me)2-Dmt-Tic-NHMe]	> 10 µM	GPI Ke [1]: 0.39 µM; GPI pA2 [1]: 6.41
H-[Dmt]-[Tic]-NHMe [H-Dmt-Tic-NHMe]	> 10 µM	GPI Ke [1]: 1.15 µM; GPI pA2 [1]: 5.94
H-[Dmt]-[Tic]-Ala-NHMe (SMILES CNC(=O)[C@H](C)NC(=O)[C@@H]1Cc2ccccc2CN1C(=O)[C@@H](N)Cc1c(C)cc(O)cc1C) [H-Dmt-Tic-Ala-NHMe]	0.29 µM	–
{des‑NH2‑α‑pyrrole‑1‑yl}-[Dmt]-[Tic]-OH [[des-NH2-α-pyrrole-1-yl]-Dmt-Tic-OH]	> 10 µM	–
H-[Dmt]-[Tic]-Ala-{NH(1-Adamantyl)} [H-Dmt-Tic-Ala-NH-1-adamantane]	1 µM	–
H-Y[dA]FGYPS-NH2 [dermorphin: H-Tyr-D-Ala-Phe-Gly-Tyr-Pro-Ser-NH2]	–	IC50 (µ agonist activity, GPI) [2]: 0.00182 µM
H-[Dmt]-[Tic]-NHtBu (SMILES Cc1cc(O)cc(C)c1C[C@H](N)C(=O)N1Cc2ccccc2C[C@H]1C(=O)NC(C)(C)C) [H-Dmt-Tic-NH-tBu]	1.04 µM	–
